Results published in patent publication US10358467B2, “Therapeutic targets for cancer progression” (The Regents of the University of California, priority 2015, dated 2019).
Residue numbers refer to the chain shown, from its start. Names and notes keep the numbering of the source.

Key:
GST-Gαi3 = target: T1, GST-Gαi3 (Rattus norvegicus, UniProt P08753); assay: Competition with His-DAPLE-CT for binding to GST-Gαi3 (pulldown)
T1 construct: made in house; host or cells: E. coli BL21 (DE3)
Method: Purified GST-Gαi3 or GST alone (5 μg) were immobilized on glutathione-Sepharose beads and incubated with binding buffer [50 mM Tris-HCl (pH 7.4), 100 mM NaCl, 0.4% (v:v) Nonidet P-40, 10 mM MgCl2, 5 mM EDTA, 30 μM GDP, 2 mM DTT, protease inhibitor mixture] for 90 min at room temperature as described before (Garcia-Marcos et al, 2011a; Ghosh et al, 2010; Ghosh et al, 2008; Lin et al, 2011). Lysates (˜250 μg) of Cos7 cells expressing appropriate myc-DAPLE constructs or purified His-DAPLE-CT (aa 1650-2028) protein (3 μg) were added to each tube, and binding reactions were carried out for 4 h at 4° C. with constant tumbling in binding buffer [50 mM Tris-HCl (pH 7.4), 100 mM NaCl, 0.4% (v:v) Nonidet P-40, 10 mM MgCl2, 5 mM EDTA, 30 μM GDP, 2 mM DTT]. Beads were washed (4×) with 1 mL of wash buffer [4.3 mM Na2HPO4, 1.4 mM KH2PO4 (pH 7.4), 137 mM NaCl, 2.7 mM KCl, 0.1% (v:v) Tween 20, 10 mM MgCl2, 5 mM EDTA, 30 μM GDP, 2 mM DTT] and boiled in Laemmli's sample buffer. In some experiments the ‘active’ conformation of the G protein was stabilized by replacing GDP in the binding and wash buffers with 30 μM GTPγS or a mixture of 30 μM GDP/30 μM AlCl3/10 mM NaF. Immunoblot quantification was performed by infrared imaging following the manufacturer's protocols using an Odyssey imaging system (Li-Cor Biosciences).

DLD1 cells = assay: Anchorage-dependent tumor growth assay; type: cell-based, human; settings: DLD1 cells stably expressing constructs, 2-3 weeks
Method: Anchorage-dependent growth was monitored on solid (plastic) surface as described previously (Franken et al, 2006). Briefly, anchorage-dependent growth was monitored on solid (plastic) surface. Approximately ˜1000 DLD1 cells stably expressing various DAPLE constructs were plated in 6-well plates and incubated in 5% CO2 at 37° C. for ˜2 weeks in 0.2% FBS growth media. Colonies were then stained with 0.005% crystal violet for 1 h. The remaining DLD1 cells were lysed and analyzed by immunoblotting to confirm DAPLE construct expression. Each experiment was analyzed in triplicate.

[1] = tested on: β-Catenin/TCF/LEF pathway in DLD1 7TGP cells; assay: β-Catenin reporter assay (7TGP); type: cell-based, human; settings: stable expression, starved and stimulated with Wnt5a, versus vector control
Method: These assays were carried out using the well-established reporter 7×Tcf-eGFP (7TGP) (Fuerer & Nusse, 2010). Stable cells lines expressing this reporter were generated by lentiviral transduction and subsequent selection using standard procedures. Lentiviral infection and selection were performed according to standard procedures. Briefly, 10 cm plates DLD1 cells at 70% confluency were incubated with media containing 8 μg/mL polybrene and 10 μl of lentivirus for 6 h. After 24 hours post infection, selection of puromycin-resistant clones was initiated by adding the antibiotic at 2 μg/ml final concentration. The resultant DLD1-7TGP stable cells were subsequently transfected with various myc-DAPLE constructs and selected for G418 resistance as described earlier in methods. The DLD1-7TGP cells stably expressing myc-DAPLE were incubated overnight at 0.2% FBS, analyzed by fluorescence microscopy, and photographed prior to lysis. Whole cell lysates samples were then boiled in Laemmli's sample buffer and GFP protein expression was monitored by immunoblotting.

NIH3T3 cells = assay: 3D spheroid matrigel invasion assay; type: cell-based; settings: in response to Wnt5a
Method: NIH3T3 cell invasion assay in 3D culture was performed according to the manufacturer's protocol (Trevigen, Cultrex 3D Spheroid BME Cell Invasion Assay, catalog #3500-096-K). Briefly, non-invasive NIH3T3 cells (˜3000 cells) transfected with empty vector (control) or myc-DAPLEconstructs were incubated first in the Spheroid Formation extracellular matrix (ECM) containing 0.2% FBS for 3 days. Invasion matrix was then added and layered on top with media containing FBS. […] Photographs were analyzed and pseudocolored by Image J to reflect cell density.

T1 sequence (P08753 whole entry): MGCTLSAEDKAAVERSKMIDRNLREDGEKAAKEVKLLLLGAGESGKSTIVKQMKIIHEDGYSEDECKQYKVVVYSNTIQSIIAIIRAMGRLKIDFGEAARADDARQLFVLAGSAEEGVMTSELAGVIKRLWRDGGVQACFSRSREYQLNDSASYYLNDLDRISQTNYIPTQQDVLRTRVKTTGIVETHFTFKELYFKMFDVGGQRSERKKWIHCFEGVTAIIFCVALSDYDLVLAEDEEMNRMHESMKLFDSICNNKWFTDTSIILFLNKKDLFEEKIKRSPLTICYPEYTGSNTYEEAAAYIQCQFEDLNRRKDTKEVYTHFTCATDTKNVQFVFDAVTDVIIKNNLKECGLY

KB-752: synthetic GEF peptide similar to the GBA motif (SRVTWYDFLMEDTKSR) [reference compound]
competition with His-DAPLE-CT for binding to GST-Gαi3 (GST-Gαi3): competed

B1: His-GIV-CT: His-GIV-CT (aa 1660-1870, containing its GEF motif) (protein)
chain: ISETLESRHHKIKTGSPGSEVVTLQQFLEESNKLTSVQIKSSSQENLLDEVMKSLSVSSDFLGKDKPVSCGLARSVSGKTPGDFYDRRTTKPEFLRPGPRKTEDTYFISSAGKPTPGTQGKIKLVKESSLSRQSKDSNPYATLPRASSVISTAEGTTRRTSIHDFLTKDSRLPISVDSPPAAADSNTTAASNVDKVQESRNSKSRSREQQS
modifications: left off: small tags and cut ends
competition with His-DAPLE-CT for binding to GST-Gαi3 (GST-Gαi3): competed

B2: DAPLE-V2-WT: short isoform of DAPLE (SEQ ID NO: 23, 552 aa) expressed in cells (protein, listed as Homo sapiens)
chain: MSVLSPGDLKPKRGSPHRGSLDRTDASTDLAMRSWPSELGSRTCSTSATTTAPSNSTPIARHPGRTKGYNSDDNLCEPSLEFEVPNHRQYVSRPSSLESSRNTSSNSSPLNLKGSSEQLHGRSESFSSEDLIPSRDLATLPREASTPGRNALGRHEYPLPRNGPLPQEGAQKRGTAPPYVGVRPCSASPSSEMVTLEEFLEESNRSSPTHDTPSCRDDLLSDYFRKASDPPAIGGQPGPPAKKEGAKMPTNFVAPTVKMAAPTSEGRPLKPGQYVKPNFRLTEAEAPPSVAPRQAQPPQSLSLGRPRQAPVPPASHAPASRSASLSRAFSLASADLLRASGPEACKQESPQKLGAPEALGGRETGSHTLQSPAPPSSHSLARERTPLVGKAGSSCQGPGPRSRPLDTRRFSLAPPKEERLAPLHQSATAPAIATAGAGAAAAGSGSNSQLLHFSPAAAPAARTKPKAPPRSGEVATITPVRAGLSLSEGDGVPGQGCSEGLPAKSPGRSPDLAPHLGRALEDCSRGSVSKSSPASPEPGGDPQTVWYEYGCV
modifications: myc tag
adherent colonies per well (tumor growth) (DLD1 cells): can inhibit tumor growth | eGFP signal (Wnt transcriptional activity) [1]: showed inhibition of eGFP | invasion of matrigel by spheroids (NIH3T3 cells): Neither the WT nor the FA mutant of DAPLE-V2 could trigger invasion

B3: DAPLE-V2-FA: DAPLE-V2 with F194A mutation disrupting Gαi3 binding, expressed in cells (protein)
chain: B2 chain with F199A
modifications: left off: small tags and cut ends
eGFP signal (Wnt transcriptional activity) [1]: not | invasion of matrigel by spheroids (NIH3T3 cells): Neither the WT nor the FA mutant of DAPLE-V2 could trigger invasion
